In one data set the target is T1, Cas2 (SisCas2) (Sulfolobus islandicus REY15A, UniProt F0NH44 1-89).
T1 sequence: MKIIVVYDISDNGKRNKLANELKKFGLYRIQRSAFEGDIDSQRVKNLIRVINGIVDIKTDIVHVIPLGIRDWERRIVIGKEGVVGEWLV
The experiment in a line: EMSA; 3.3 and 6.7 uM Cas2; EMSA on 12% native PAGE, 0.3 uM FAM probe (0.5 uM P1 in Fig S3); buffer, pH and temperature not stated (refers to earlier work). The note with it: protein: recombinant; tags: C-terminal His; chain copies: 2; label: 5'-FAM on sense strand; mixture of blunt duplex, ssDNA and hairpin. For orientation: Mobility shift assays separate free from complexed probe on a gel.

The target in a further data set is T2, PfuCas1 (Pyrococcus furiosus COM1, UniProt I6TWX9 1-322).
T2 sequence: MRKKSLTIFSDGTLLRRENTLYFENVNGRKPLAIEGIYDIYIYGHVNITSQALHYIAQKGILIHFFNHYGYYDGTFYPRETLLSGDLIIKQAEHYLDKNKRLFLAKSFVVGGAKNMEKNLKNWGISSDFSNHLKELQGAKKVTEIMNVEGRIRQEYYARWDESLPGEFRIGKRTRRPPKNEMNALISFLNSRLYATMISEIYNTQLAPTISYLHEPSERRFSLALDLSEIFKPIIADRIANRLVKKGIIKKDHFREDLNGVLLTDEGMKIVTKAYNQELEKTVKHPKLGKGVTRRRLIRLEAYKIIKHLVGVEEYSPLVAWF
The experiment in a line: EMSA; EMSA on 12% native PAGE, 0.3 uM FAM probe (0.5 uM P1 in Fig S3); buffer, pH and temperature not stated (refers to earlier work). Particulars: protein: recombinant, tags: C-terminal His, chain copies: 2, label: 5'-FAM.

B1: leader-proximal WT S/A annealed probe (5:1 or unspecified ratio, contains hairpin ssDNA) (mixed)
DNA 1: CAAATAGAGGGTTAAAAAACCCTCAGCTAATC
DNA 2: GATTAGCTGAGGGTTTTTTAACCCTCTATTTG
As to B1, the binding result in the data set with Cas2 (SisCas2) is “no binding”.
As for TCCTCCACTTTCCCCGTAAGGGGTCGGAGGGGGCGGTCTTTCCC (structured_DNA) [Syn-S leader ssDNA], the binding result with PfuCas1 (two predicted hairpins) is listed as “binds”.

B2: Pfu-WT leader-repeat ssDNA (structured_DNA)
DNA: CTCCGTAGGAGGATTGGGGCAAAAAAGCCCCCTGTTCCAATAAGACTACAAAAGAATTGAAAG
With B2, the binding result with PfuCas1 (hairpin) is reported as “binds”.

The values above are taken from paper PMC9456107, “DNA Motifs and an Accessory CRISPR Factor Determine Cas1 Binding and Integration Activity in Sulfolobus islandicus”.
